We go through one molecule from patent US10400224B2, “Enantioselective modified esterase enzyme and method for the production thereof” (CORPORACIÓN CORPOGEN, priority 2014, dated 2019).

Data set [1] can be described thus: Kinetic resolution of pNP ester of naproxen (1H-NMR, chiral HPLC). The format is biochemical. On the procedure: (§1) The enantioselectivity was evaluated by means of the kinetic resolution of the substrates phenyl ester naproxen and pNP ester naproxen. The procedure was the following (Chow et al., 2012):
(§2) i) 69.29 mL of a buffer phosphate solution (100 mM, pH 8.0) was mixed with 8 mL of DMSO-d6 and 2.64 mL of the stock solution of the substrate (10 mM in DMSO-d6). To this solution, it was added 200 μl of the enzyme to evaluate. The reaction was performed under continuous agitation at a temperature between 45° C. and 75° C. for 40 minutes.
(§3) ii) The reaction was stopped by adding a concentrated solution of HCl (pH 1.0). Immediately, the naproxen was extracted with MTBE twice with 20 ml of the solution.
(§4) iii) The extracted mixture of naproxen was dried under reduced pressure conditions. The transformation of this substrate was determined by means of MRI spectrographs (1H-NMR, Hydrogen-1 nuclear magnetic resonance) in which were compared the signals generated by the methyl groups from the naproxen and its corresponding esters.
(§5) iv) After measuring the samples containing the naproxen and the phenyl ester of naproxen, these samples were mixed with MTBE, 20 mL and extracted again with 20 mL, from an aqueous solution of NaHCO3.
(§6) v) The aqueous phase was acidified with HCl and it was extracted with MTBE, 20 ml. The extracted naproxen was derivatized to methyl ester through the addition of a solution of diazomethane 0.5 M in ethanol. The solvent was removed by a reduced pressure.
(§7) vi) The enantiomeric excess of the methyl ester ibuprofen was determined by means of chiral liquid high efficiency chromatography (HPLC—High performance liquid chromatography) (Dionex) using a Chiralcel ODH, under the following conditions • A mobile phase n-heptane: isopropanol with a ratio of 99:1 • A flow of 0.5 mL.min^1 • Reading at 225 nm.
(§8) vii) The retention time for the (S) and (R) enantiomers of methyl ester naproxen were of 22.84 and 19.39 minutes, respectively.
viii) The samples evaluated by NMR, underwent an additional test for determining the ee, by means of chiral HPLC with a CD detector (Jasco) using a Hyperclone ODS C18 column, under the following conditions: • A mobile phase of acetonitrile:water in a ratio of 80:20. • Flow of 0.5 mL.min^−1 • Reading of 220 nm
ix) The retention time for the p-NP ester of naproxen was of 3.83 minutes. The CD signal was measured at 280 nm.

Data set [2] can be described thus: Kinetic resolution of racemic phenyl ester of ibuprofen (chiral HPLC). The format is biochemical. On the procedure:
An evaluation was performed analytical scale to deter mine the kinetic resolution of phenyl ester substrates of ibuprofen and naproxen (Chow et al., 2012). The evaluation of the kinetic resolution for phenyl ester substrates of ibuprofen was developed in the following manner:
i) A solution with 17.32 Ml of buffer phosphate (100 mM, pH 8.0) was mixed with 2 ml. of DMSO and 0.66 mil of the stock solution of the substrate (10 mM in DMSO). To this solution it was added 100 μl of the enzyme to evaluate. The reaction was made with continuous agitation at a temperature from 45° C. and 75° C. for 80 minutes.
ii) The reaction was stopped by the addition of a concentrated solution of HCl (pH 1.0). Immediately thereafter, it was extracted the ibuprofen with methyl tertiary butyl ether (MTBE) twice with 20 ml of the solution.
iii) The ibuprofen was derivatized as a methyl ester after having added a solution of diazomethane 0.5 M in ethanol. The solvent was removed by means of reduction of pressure.
iv) The enantiomeric excess of the phenyl ester Ibuprofen and of the methyl ester ibuprofen was determined by means of chiral liquid high efficiency chromatography (HPLC—High performance liquid chromatography) (Dionex) using a Chiralpak IA column, under the following conditions: • A mobile phase n-heptane:isopropanol with a ratio of 99.8:0.2 • A flow of 0.5 mL.min^1 • Reading at 210 nm.
v) The retention time for the enantiomer (S) methyl ester ibuprofen was of 10:23 minutes, while that for the enantiomer (R) methyl ester ibuprofen was of 11:17 minutes. The retention time for the enantiomers (S) and (R) phenyl ester ibuprofen were of 16.32 and 18.07 respectively.

Data set [3] in a line: Kinetic resolution of phenyl ester of naproxen (1H-NMR, chiral HPLC). The format is biochemical. On the procedure: as §1, §2, §3, §4, §5, §6, §7, §8
Data set [4] in a line: Optimum temperature and pH of the modified enzyme (p-nitrophenyl ester assay). The format is biochemical. On the procedure:
The activity of the modified enzyme was determined spectrophotometrically at 405 nm in a range of temperatures between 45 and 75° C., using p-nitro phenyl of other chains C6 to C10 (Sigma-Aldrich) as substrate. One unit of esterase activity was defined as the capacity of the enzyme to release 1 μmol min^−1 of p-nitrophenol under the essay conditions. The molar absorbance coefficient was of 16.900 M^−1 cm^−1. The mixture consisted of 448 μl of the Tris-HCl 50 mM buffer at 9.0 pH that contained 50 μl of p-nitrophenyl diluted in isopropanol and 2 μl of the solution stock of the protein. All the assays were made by triplicate and the average was calculated.
The optimum temperature of the modified enzyme was evaluated between 30 and 90° C. in buffer Tris HCl 50 mM (pH 9.0) exposing the enzyme to 30 minutes in each evaluated temperature (Suzuki et al., 2004, Park et al., 2006). […]
It was evaluated the activity of the enzyme by means of the p-nitrophenyl ester with some modifications, since for evaluating different pH values were used different buffer solutions, depending of the pH to evaluate: buffer acetate 50 mM (pH 5.0-6.0) buffer succinate (pH 4.0-5.5), MES (pH5.5-7.0). […] The protein was incubated for 15 minutes at a temperature higher than 45° C. and lower than 75° C. and then the quantification was made.

The nature of data set [5]: Storage of the purified modified protein in Tris-HCl buffer. The format is physicochemical. The settings on record: Tris-HCL buffer at 9.0 pH, 4° C. On the procedure: Thereafter, the product of the elution was concentrated in Amicon columns of 30 kDa. This concentration process was strictly necessary in order to be able to rule out the elution solution in which it was the protein and permit to leave it in a Tris-HCL buffer at a 9.0 pH, which permits stability to the modified protein. […] The purity of the protein was evaluated in a SDS-PAGE gel at 12% (p/v).

Where [6] appears, read: calculated by method of Kroutil et al, 1997.

B1: 499EST: esterase enzyme of SEQ No. 2 from strain USBA-GBX-499 with a C-terminal tail of 5-10 histidine residues (protein, listed as Acidicaldus sp.)
chain: MPLDRHAEAVLEMIRQSGRPPYETLTPAEARGLYRQAREVLAPEPPPVAEVRDLSLPHPAGPALPTRLYRPQQGGAPLPLLVYFHGGGWVIGDLETHDVVCREIANRAGIGVLSIDYRLAPEHKFPAAVEDAFAATRWAAKEAPSLGFDPARLAVGGDSAGGNLAAVVSLLAREQGGPSIAFQLLIYPATDLGMTHPSHQRWAEGYLLTRPTMEWFRAHYLTDPTREIADWRVSPLRAPDLRGLPPAFVLTAEYDPLVDEGEDYAARLAAAGVPVATHRVPGMIHGFLTMGKAIPAANEALGLIAERLRAALA
modifications: C-terminal histidine tail; amino acid sequence of 499EST
Take B1: the conversion in data set [1] (1H-RMN) is given as 49%; in data set [3] (1H-RMN) it was 52%. The “ee of naproxen product” value in data set [1] (HPLC) is reported as 31%; in data set [3] (HPLC), 65%. Besides, the “enantioselectivity lower for the pNP ester than for the phenyl ester” value in data set [1] (naproxen esters) amounted to 5 times. Also, the “enantioselectivity E” value is 2 in data set [1] (pNP ester of naproxen), 4 in data set [2] (setting [6]) and 10 in data set [3] (phenyl ester of naproxen). The conversion c in data set [2] (setting [6]) is listed as 56%. For the same molecule, in data set [2] (chiral HPLC), the “ee of the substrate (phenyl ester of ibuprofen)” value turned out to be 50%. The “ee of the product” value in data set [2] (chiral HPLC, product derivatized as methyl ester) is listed as 40%. Further, in data set [4], the “pH of optimum activity” value turned out to be 9.0. For the same molecule, the “temperature of optimum activity” value in data set [4] came to 55 °C. The storage time entry in data set [5] is on record as “several months”.
